According to patent US20230406921A1:

B1: h140Hm13/h140Lm11 (antibody, V domains shown)
VH: EVQLVQSGAEVKKPGASVKVSCKASGYKFTNYVMSWVRQAPGQRLEWMGYINPYNDAIKYNEKFTGRVTITRDTSASTAYMELSSLRSEDTAVYYCAREGDFYANYGRLGFAYWGQGTLVTVSS
VL: DIQMTQSPSSLSASVGDRVTITCRASQDITNYLNWYQQKPGKAPKLLIYYTSRLSSGVPSRFSGSGSGTDYTFTISSLQPEDIATYFCQQGDTRPYTFGGGTKVEIK
B2: h140Hm13/h140Lm12 (antibody, V domains shown)
VH: EVQLVQSGAEVKKPGASVKVSCKASGYKFTNYVMSWVRQAPGQRLEWMGYINPYNDAIKYNEKFTGRVTITRDTSASTAYMELSSLRSEDTAVYYCAREGDFYANYGRLGFAYWGQGTLVTVSS
VL: DIQMTQSPSSLSASVGDRVTITCRASQDITNYLNWYQQKPGKAPKLLIYYTSRLQSGVPSRFSGSGSGTDYTFTISSLQPEDIATYFCQQGDTRPYTFGGGTKVEIK
B3: h140Hm13/h140Lm13 (antibody, V domains shown)
VH: EVQLVQSGAEVKKPGASVKVSCKASGYKFTNYVMSWVRQAPGQRLEWMGYINPYNDAIKYNEKFTGRVTITRDTSASTAYMELSSLRSEDTAVYYCAREGDFYANYGRLGFAYWGQGTLVTVSS
VL: DIQMTQSPSSLSASVGDRVTITCRASQDITNYLNWYQQKPGKAPKLLIYYTSRLHSGVPSRFSGSGSGTDYTFTISSLQPEDIATYFCQQGDTFPYTFGGGTKVEIK
B4: h140Hm13/h140Lm14 (antibody, V domains shown)
VH: EVQLVQSGAEVKKPGASVKVSCKASGYKFTNYVMSWVRQAPGQRLEWMGYINPYNDAIKYNEKFTGRVTITRDTSASTAYMELSSLRSEDTAVYYCAREGDFYANYGRLGFAYWGQGTLVTVSS
VL: DIQMTQSPSSLSASVGDRVTITCRASQDITNYLNWYQQKPGKAPKLLIYYTSRLQSGVPSRFSGSGSGTDYTFTISSLQPEDIATYFCQQGDTYPYTFGGGTKVEIK
B5: h140Hm13/h140Lm15 (antibody, V domains shown)
VH: EVQLVQSGAEVKKPGASVKVSCKASGYKFTNYVMSWVRQAPGQRLEWMGYINPYNDAIKYNEKFTGRVTITRDTSASTAYMELSSLRSEDTAVYYCAREGDFYANYGRLGFAYWGQGTLVTVSS
VL: DIQMTQSPSSLSASVGDRVTITCRASQDITNYLNWYQQKPGKAPKLLIYYTSRLQSGVPSRFSGSGSGTDYTFTISSLQPEDIATYFCQQGDTKPYTFGGGTKVEIK
B6: h140Hm13/h140Lm16 (antibody, V domains shown)
VH: EVQLVQSGAEVKKPGASVKVSCKASGYKFTNYVMSWVRQAPGQRLEWMGYINPYNDAIKYNEKFTGRVTITRDTSASTAYMELSSLRSEDTAVYYCAREGDFYANYGRLGFAYWGQGTLVTVSS
VL: DIQMTQSPSSLSASVGDRVTITCRASQDITNYLNWYQQKPGKAPKLLIYYTSRLQSGVPSRFSGSGSGTDYTFTISSLQPEDIATYFCQQGDTSPYTFGGGTKVEIK
B7: h140Hm13/h140Lm17 (antibody, V domains shown)
VH: EVQLVQSGAEVKKPGASVKVSCKASGYKFTNYVMSWVRQAPGQRLEWMGYINPYNDAIKYNEKFTGRVTITRDTSASTAYMELSSLRSEDTAVYYCAREGDFYANYGRLGFAYWGQGTLVTVSS
VL: DIQMTQSPSSLSASVGDRVTITCRASQDITNYLNWYQQKPGKAPKLLIYYTSRLQSGVPSRFSGSGSGTDYTFTISSLQPEDIATYFCQQGDTEPYTFGGGTKVEIK
B8: h140Hm13/h140Lm18 (antibody, V domains shown)
VH: EVQLVQSGAEVKKPGASVKVSCKASGYKFTNYVMSWVRQAPGQRLEWMGYINPYNDAIKYNEKFTGRVTITRDTSASTAYMELSSLRSEDTAVYYCAREGDFYANYGRLGFAYWGQGTLVTVSS
VL: DIQMTQSPSSLSASVGDRVTITCRASQDITNYLNWYQQKPGKAPKLLIYYTSRLQSGVPSRFSGSGSGTDYTFTISSLQPEDIATYFCQQGDTNPYTFGGGTKVEIK

What follows are binders tested against CD47 on the surface of human red blood cells (human) (UniProt Q08722) (assay: FACS, hRBC, 500 nM).
For B1, the FACS (MFI) was 789 MFI.
In the case of B2, the FACS (MFI) is reported as 946 MFI.
B3 was tested, and the FACS (MFI) was 1760 MFI.
Binder B4 has an FACS (MFI) of 921 MFI.
B5 showed an FACS (MFI) of 954 MFI.
With B6 the FACS (MFI) was 721 MFI.
Binder B7 has an FACS (MFI) of 689 MFI.
B8 gave an FACS (MFI) of 697 MFI.
